{
  "source": "patent US20200206266A1",
  "about": "(JULIUS MAXIMILIANS UNIVERSIT T W RZBURG, published 2020)",
  "binders": {"B1": {"name": "anti-FLT3 BV10 mAb (Biolegend) (antibody, V domains shown)", "VH": "QVQLKQSGPGLVQPSQSLSITCTVSGFSLTNYGLHWVRQSPGKGLEWLGVIWSGGSTDYNAAFISRLSISKDNSKSQVFFKMNSLQADDTAIYYCARKGGIYYANHYYAMDYWGQGTSVTVSS", "VL": "DIVMTQSPSSLSVSAGEKVTMSCKSSQSLLNSGNQKNYMAWYQQKPGQPPKLLIYGASTRESGVPDRFTGSGSGTDFTLTISSVQAEDLAVYYCQNDHSYPLTFGAGTKLELKR"}, "B2": {"name": "BV10 FLT3 CAR (other)", "chain": "QVQLKQSGPGLVQPSQSLSITCTVSGFSLTNYGLHWVRQSPGKGLEWLGVIWSGGSTDYNAAFISRLSISKDNSKSQVFFKMNSLQADDTAIYYCARKGGIYYANHYYAMDYWGQGTSVTVSSGGGGSGGGGSGGGGSDIVMTQSPSSLSVSAGEKVTMSCKSSQSLLNSGNQKNYMAWYQQKPGQPPKLLIYGASTRESGVPDRFTGSGSGTDFTLTISSVQAEDLAVYYCQNDHSYPLTFGAGTKLELKRESKYGPPCPPCPMFWVLVVVGGVLACYSLLVTVAFIIFWVRSKRSRGGHSDYMNMTPRRPGPTRKHYQPYAPPRDFAAYRSRVKFSRSADAPAYQQGQNQLYNELNLGRREEYDVLDKRRGRDPEMGGKPRRKNPQEGLYNELQKDKMAEAYSEIGMKGERRRGKGHDGLYQGLSTATKDTYDALHMQALPPR"}, "B3": {"name": "mouse-anti-human-FLT3 mAb (clone 4G8, BD Pharmagin, BD Biosciences) (antibody, V domains shown)", "VH": "QVQLQQPGAELVKPGASLKLSCKSSGYTFTSYWMHWVRQRPGHGLEWIGEIDPSDSYKDYNQKFKDKATLTVDRSSNTAYMHLSSLTSDDSAVYYCARAITTTPFDFWGQGTTLTVSS", "VL": "DIVLTQSPATLSVTPGDSVSLSCRASQSISNNLHWYQQKSHESPRLLIKYASQSISGIPSRFSGSGSGTDFTLSINSVETEDFGVYFCQQSNTWPYTFGGGTKLEIKR", "notes": "Bought, fluorochrome-conjugated mouse antibody, used with a mouse IgG1 isotype control; also called anti-FLT3 mAb (4G8); anti-FLT3 4G8 mAb"}, "B4": {"name": "4G8 FLT3 CAR (other)", "chain": "QVQLQQPGAELVKPGASLKLSCKSSGYTFTSYWMHWVRQRPGHGLEWIGEIDPSDSYKDYNQKFKDKATLTVDRSSNTAYMHLSSLTSDDSAVYYCARAITTTPFDFWGQGTTLTVSSGGGGSGGGGSGGGGSDIVLTQSPATLSVTPGDSVSLSCRASQSISNNLHWYQQKSHESPRLLIKYASQSISGIPSRFSGSGSGTDFTLSINSVETEDFGVYFCQQSNTWPYTFGGGTKLEIKRESKYGPPCPPCPMFWVLVVVGGVLACYSLLVTVAFIIFWVRSKRSRGGHSDYMNMTPRRPGPTRKHYQPYAPPRDFAAYRSRVKFSRSADAPAYQQGQNQLYNELNLGRREEYDVLDKRRGRDPEMGGKPRRKNPQEGLYNELQKDKMAEAYSEIGMKGERRRGKGHDGLYQGLSTATKDTYDALHMQALPPR"}},
  "key": {"[1]": {"target": "T1, FLT3 with internal tandem duplication (FLT3-ITD) (human, UniProt P36888 27-543)", "T1 sequence (looked up)": "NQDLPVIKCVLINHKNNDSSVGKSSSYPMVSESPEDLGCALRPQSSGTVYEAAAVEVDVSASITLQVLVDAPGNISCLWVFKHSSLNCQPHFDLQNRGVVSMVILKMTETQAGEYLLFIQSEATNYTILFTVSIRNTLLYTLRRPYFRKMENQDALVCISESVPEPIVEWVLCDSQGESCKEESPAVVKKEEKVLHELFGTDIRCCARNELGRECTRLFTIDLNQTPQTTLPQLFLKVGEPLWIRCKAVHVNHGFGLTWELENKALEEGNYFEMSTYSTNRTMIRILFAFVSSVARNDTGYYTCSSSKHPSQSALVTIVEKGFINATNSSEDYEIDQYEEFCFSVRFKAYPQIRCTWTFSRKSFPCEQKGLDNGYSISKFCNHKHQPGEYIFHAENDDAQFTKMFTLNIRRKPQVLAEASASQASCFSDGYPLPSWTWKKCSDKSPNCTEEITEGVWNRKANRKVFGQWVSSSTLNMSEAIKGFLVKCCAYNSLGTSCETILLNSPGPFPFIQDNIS", "experiment": "cell-based or functional assay"}, "[2]": {"target": "T2, FMS-like tyrosine kinase 3 (FLT3), wild-type (human, UniProt P36888 27-993)", "T2 construct": "whole, on cells; also called CD135; wt FLT3", "T2 sequence (looked up)": "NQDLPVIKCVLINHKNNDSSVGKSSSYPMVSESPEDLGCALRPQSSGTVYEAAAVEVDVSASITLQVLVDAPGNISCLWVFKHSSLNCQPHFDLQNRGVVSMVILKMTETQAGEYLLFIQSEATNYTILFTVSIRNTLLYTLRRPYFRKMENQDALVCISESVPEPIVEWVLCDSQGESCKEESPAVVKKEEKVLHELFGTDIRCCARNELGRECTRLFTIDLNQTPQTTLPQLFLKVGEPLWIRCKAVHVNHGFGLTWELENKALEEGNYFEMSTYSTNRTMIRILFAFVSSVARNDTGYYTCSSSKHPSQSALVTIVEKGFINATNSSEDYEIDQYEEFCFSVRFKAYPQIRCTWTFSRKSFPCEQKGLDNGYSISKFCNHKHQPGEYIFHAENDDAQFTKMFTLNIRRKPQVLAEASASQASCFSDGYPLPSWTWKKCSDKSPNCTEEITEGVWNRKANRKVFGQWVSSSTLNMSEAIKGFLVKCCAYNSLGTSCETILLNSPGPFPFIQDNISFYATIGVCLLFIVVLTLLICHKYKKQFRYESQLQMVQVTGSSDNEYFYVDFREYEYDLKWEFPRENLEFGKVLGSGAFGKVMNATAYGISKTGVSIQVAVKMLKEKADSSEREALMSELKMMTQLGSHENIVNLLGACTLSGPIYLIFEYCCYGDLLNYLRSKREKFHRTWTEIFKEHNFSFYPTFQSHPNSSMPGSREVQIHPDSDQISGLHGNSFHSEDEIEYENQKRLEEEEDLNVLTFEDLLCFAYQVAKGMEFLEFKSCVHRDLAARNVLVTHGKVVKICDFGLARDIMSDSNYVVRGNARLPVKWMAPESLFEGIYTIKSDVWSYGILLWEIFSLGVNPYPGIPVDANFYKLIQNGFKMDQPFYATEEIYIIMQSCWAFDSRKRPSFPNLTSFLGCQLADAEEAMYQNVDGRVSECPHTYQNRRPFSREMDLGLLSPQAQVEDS", "experiment": "flow cytometry, staining of THP-1 cells (FLT3 wild-type)", "from_the_text": "(a) Flow cytometric analysis of FLT3 expression on AML cell lines (MOLM-13, THP-1, MV4;11) and primary AML blasts (pt #1 and #2)."}},
  "data": [
    {"binder": "B1", "values": [
      {"measurement": "ADCC, percentage of MV4;11 cells eliminated, crenolanib pre-treatment against none", "setting": "[1]", "value": 3, "unit": "fold"},
      {"measurement": "ADCC, percentage of MV4;11 cells eliminated, midostaurin pre-treatment against none", "setting": "[1]", "value": 2, "unit": "fold"},
      {"measurement": "ADCC, percentage of MV4;11 cells eliminated, quizartinib pre-treatment against none", "setting": "[1]", "value": 3.5, "unit": "fold"}
    ]},
    {"binder": "B2", "values": [
      {"measurement": "IFN-γ production, CAR-T vs MOLM-13^native", "setting": "[1]", "value": 1480, "unit": "pg/mL"},
      {"measurement": "IFN-γ production, MOLM-13^creno against MOLM-13^native", "setting": "[1]", "value": 1.6, "unit": "fold"},
      {"measurement": "IFN-γ production, MOLM-13^mido against MOLM-13^native", "setting": "[1]", "value": 2.1, "unit": "fold"},
      {"measurement": "IFN-γ production, MOLM-13^quiza against MOLM-13^native", "setting": "[1]", "value": 1.2, "unit": "fold"},
      {"measurement": "IL-2 production, MOLM-13^creno against MOLM-13^native", "setting": "[1]", "value": 2, "unit": "fold"},
      {"measurement": "IL-2 production, MOLM-13^mido against MOLM-13^native", "setting": "[1]", "value": 6.6, "unit": "fold"},
      {"measurement": "IL-2 production, MOLM-13^quiza against MOLM-13^native", "setting": "[1]", "value": 1.9, "unit": "fold"},
      {"measurement": "increase in cytolytic activity, MOLM-13^creno against MOLM-13^native, 2.5:1 E:T", "setting": "[1]", "value": 1.8, "unit": "fold"},
      {"measurement": "increase in cytolytic activity, MOLM-13^creno against MOLM-13^native, 5:1 E:T", "setting": "[1]", "value": 1.6, "unit": "fold"},
      {"measurement": "increase in cytolytic activity, MOLM-13^mido against MOLM-13^native, 2.5:1 E:T", "setting": "[1]", "value": 1.6, "unit": "fold"},
      {"measurement": "increase in cytolytic activity, MOLM-13^mido against MOLM-13^native, 5:1 E:T", "setting": "[1]", "value": 1.3, "unit": "fold"},
      {"measurement": "increase in cytolytic activity, MOLM-13^quiza against MOLM-13^native, 2.5:1 E:T", "setting": "[1]", "value": 3.8, "unit": "fold"},
      {"measurement": "increase in cytolytic activity, MOLM-13^quiza against MOLM-13^native, 5:1 E:T", "setting": "[1]", "value": 1.6, "unit": "fold"},
      {"measurement": "proliferation index, MOLM-13^creno against MOLM-13^native", "setting": "[1]", "value": 1.3, "unit": "fold"},
      {"measurement": "proliferation index, MOLM-13^mido against MOLM-13^native", "setting": "[1]", "value": 1.8, "unit": "fold"},
      {"measurement": "proliferation index, MOLM-13^quiza against MOLM-13^native", "setting": "[1]", "value": 1.2, "unit": "fold"}
    ]},
    {"binder": "B3", "values": [
      {"measurement": "binding result", "setting": "[2]", "value": "binds"}
    ]},
    {"binder": "B4", "values": [
      {"measurement": "% proliferation, CAR-T vs MOLM-13^native", "setting": "[1]", "value": 31.3, "unit": "%"},
      {"measurement": "IFN-γ production, MOLM-13^creno against MOLM-13^native", "setting": "[1]", "value": 1.4, "unit": "fold"},
      {"measurement": "IFN-γ production, MOLM-13^mido against MOLM-13^native", "setting": "[1]", "value": 2.3, "unit": "fold"},
      {"measurement": "IFN-γ production, MOLM-13^quiza against MOLM-13^native", "setting": "[1]", "value": 1.4, "unit": "fold"},
      {"measurement": "IL-2 production, MOLM-13^creno against MOLM-13^native", "setting": "[1]", "value": 3.9, "unit": "fold"},
      {"measurement": "IL-2 production, MOLM-13^mido against MOLM-13^native", "setting": "[1]", "value": 12.4, "unit": "fold"},
      {"measurement": "IL-2 production, MOLM-13^quiza against MOLM-13^native", "setting": "[1]", "value": 1.9, "unit": "fold"},
      {"measurement": "increase in cytolytic activity, MOLM-13^creno against MOLM-13^native, 2.5:1 E:T", "setting": "[1]", "value": 2.5, "unit": "fold"},
      {"measurement": "increase in cytolytic activity, MOLM-13^creno against MOLM-13^native, 5:1 E:T", "setting": "[1]", "value": 2, "unit": "fold"},
      {"measurement": "increase in cytolytic activity, MOLM-13^mido against MOLM-13^native, 2.5:1 E:T", "setting": "[1]", "value": 1.5, "unit": "fold"},
      {"measurement": "increase in cytolytic activity, MOLM-13^mido against MOLM-13^native, 5:1 E:T", "setting": "[1]", "value": 1.4, "unit": "fold"},
      {"measurement": "increase in cytolytic activity, MOLM-13^quiza against MOLM-13^native, 2.5:1 E:T", "setting": "[1]", "value": 17.7, "unit": "fold"},
      {"measurement": "increase in cytolytic activity, MOLM-13^quiza against MOLM-13^native, 5:1 E:T", "setting": "[1]", "value": 1.6, "unit": "fold"},
      {"measurement": "proliferation index, MOLM-13^mido against MOLM-13^native", "setting": "[1]", "value": 1.8, "unit": "fold"}
    ]}
  ]
}
